Test results: patent CN111620945A (JIANGSU DISEASE CONTROL AND PREVENTION CENTER JIANGSU …, dated 2020)

Tests used:
[1] = biological target: SARS-CoV-2 Spike蛋白(刺突蛋白) of the isolate BetaCoV/JS03/human/2020, on live virus (SARS-CoV-2, UniProt P0DTC2 14-1273); test: cell-based or functional assay
[2] = biological target: 重组SARS-CoV-2刺突蛋白胞外区 (extra cellular domain of spike protein, S-ECD) (SARS-CoV-2, UniProt P0DTC2 14-1213); test: SPR, Biacore 8K, S-ECD immobilised on a CM5 chip, antibody 125-7.8 nM
[3] = biological target: SARS-CoV-2 Spike蛋白(刺突蛋白) of the isolate BetaCoV/JS03/human/2020, on live virus (SARS-CoV-2, UniProt P0DTC2 14-1273); test: cell-based or functional assay; remark: listed apart in the source
[4] = biological target: 重组SARS-CoV-2刺突蛋白胞外区 (extra cellular domain of spike protein, S-ECD) (SARS-CoV-2, UniProt P0DTC2 14-1213); test: SPR, Biacore 8K, S-ECD immobilised on a CM5 chip, antibody 125-7.8 nM; remark: listed apart in the source

Binder | IC50(ng/ml), 体外中和实验 (live virus, Vero E6, CPE) [1] [ng/mL] | Kd [2] [nM] | IC50(ng/ml), 体外中和实验 (live virus, Vero E6, CPE) [3] [ng/mL] | Kd [4] [nM]
FC05 (antibody, V domains shown) VH: VQLLEQSGAEVKKPGASVRVSCKVSGYTLPEVAMHWVRQAPGKGLEWMGGFDPEDGETIYAQKFQGRVTMTEDTSTDTAYMELSSLRSEDTAVYYCATTTPFSSSFWFDPWGQGTLVTVSS VL: QSVLTQAPSVSGAPGQKVTISCSGSSSNIGNNYVSWYQQLPGTAPKLLIYDNNKRPSGIPDRFSGSKSGTSATLGITGLQTGDEADYYCGTWDSSLSAVVFGGGTKLTVL | 142 |  |  | 
FC08 (antibody, V domains shown, also called FC08抗体) VH: VQLLQQSGAEVKKPGSSVKVSCKASGGTFSSYAISWVRQAPGQGLEWMGGIIPILGIANYAQKFQGRVTITADKSTSTAYMELSSLRSEDTAVYYCVRERGYSGYGAAYYFDYWGQGTLVTVSS VL: QSVLTQPPSVSGAPGQRVTISCTGSSSNIGAGYDVHWYQQLPGTAPKLLIYGNSNRPSGVPDRFSGSKSGTSASLAITGLQAEDEADYYCQSYDSSLSGSVFGGGTKLTVL |  | 0.8 | 325 | 
FC11 (antibody, V domains shown) VH: EVQLLESGGGVVQPGRSLRLSCAASGFTFSYYGMHWVRQAPGTGLEWVAVISYDGSNEYYADSVKGRFTISRDNSKNTLYLQMNSLRAEDTAVYYCAKAMFLGDSSGLTGLDMDVWGQGTTVTVSS VL: DIELTQSPGTLSLSPGERATLSCRASQSVSSYLAWYQQKPGQAPRLLIYDASNRATGIPARFSGSGSGTDFTLTISSLEPEDFALYYCQQRGNWPPTFGGGTKLEIK | 818 |  |  | 0.5
